Test results taken from PMC10709652, “The separation pin distinguishes the pro– and anti–recombinogenic functions of Saccharomyces cerevisiae Srs2” (Nature Communications, 2023).
Residue numbers refer to the chain shown, from its start. Numbers in names are those of the source.

Assays:
GFP-Srs2 1-898 (WT) = GFP-Srs2 1-898 (WT) (Saccharomyces cerevisiae, UniProt P12954 1-898); experiment: EMSA; no ATP; 30 mM Tris-HCl pH 7.6, 100 mM KCl, 2 mM MgCl2, 1 mM DTT, 0.2 mg/mL BSA, 30 °C 10 min, no ATP; 1.3 µM (nucleotides) ssDNA, 10-100 nM protein; 10% native PAGE in; conditions: protein: recombinant; tags: N-terminal GFP; label: 5' fluorescein
Srs2 898 H650A = Srs2 898 H650A (Saccharomyces cerevisiae, UniProt P12954 1-898, H650A); experiment: as above; conditions: protein: recombinant; tags: N-terminal GFP; label: 5' fluorescein
Srs2 898 F68A = Srs2 898 F68A (Saccharomyces cerevisiae, UniProt P12954 1-898, F68A); experiment: as above; conditions: protein: recombinant; tags: N-terminal GFP; label: 5' fluorescein
Srs2 898 F285A = Srs2 898 F285A (Saccharomyces cerevisiae, UniProt P12954 1-898, F285A); experiment: as above; conditions: protein: recombinant; tags: N-terminal GFP; label: 5' fluorescein
Srs2 898 N70A = Srs2 898 N70A (Saccharomyces cerevisiae, UniProt P12954 1-898, N70A); experiment: as above; conditions: protein: recombinant; tags: N-terminal GFP; label: 5' fluorescein
Srs2 898 F219A = Srs2 898 F219A (Saccharomyces cerevisiae, UniProt P12954 1-898, F219A); experiment: EMSA; no ATP; Kd within 10% of WT; 30 mM Tris-HCl pH 7.6, 100 mM KCl, 2 mM MgCl2, 1 mM DTT, 0.2 mg/mL BSA, 30 °C 10 min, no ATP; 1.3 µM (nucleotides) ssDNA, 10-100 nM protein; 10% native PAGE in; conditions: protein: recombinant; tags: N-terminal GFP; label: 5' fluorescein
Srs2 898 H100A = Srs2 898 H100A (Saccharomyces cerevisiae, UniProt P12954 1-898, H100A); experiment: as above; conditions: protein: recombinant; tags: N-terminal GFP; label: 5' fluorescein
Srs2 898 R286A = Srs2 898 R286A (Saccharomyces cerevisiae, UniProt P12954 1-898, R286A); experiment: EMSA; no ATP; Kd within 10% of WT (printed R268A); 30 mM Tris-HCl pH 7.6, 100 mM KCl, 2 mM MgCl2, 1 mM DTT, 0.2 mg/mL BSA, 30 °C 10 min, no ATP; 1.3 µM (nucleotides) ssDNA, 10-100 nM protein; 10% native PAGE in; conditions: protein: recombinant; tags: N-terminal GFP; label: 5' fluorescein
Srs2 898 Y283A = Srs2 898 Y283A (Saccharomyces cerevisiae, UniProt P12954 1-898, Y283A); experiment: EMSA; no ATP; Kd within 10% of WT (printed Y238A); 30 mM Tris-HCl pH 7.6, 100 mM KCl, 2 mM MgCl2, 1 mM DTT, 0.2 mg/mL BSA, 30 °C 10 min, no ATP; 1.3 µM (nucleotides) ssDNA, 10-100 nM protein; 10% native PAGE in; conditions: protein: recombinant; tags: N-terminal GFP; label: 5' fluorescein
[1] = substrate: Nc1ncnc2c1ncn2[C@@H]1O[C@H](COP(=O)(O)OP(=O)(O)OP(=O)(O)O)[C@@H](O)[C@H]1O; experiment: ATP hydrolysis, gamma-32P-ATP, thin layer chromatography; assay type: biochemical, Saccharomyces cerevisiae; conditions: M13 ssDNA 2.5 µM (nucleotides), 2 mM MgCl2, 100 mM KCl, pH 7.6, 30 °C, 40 nM protein
[2] = substrate: Nc1ncnc2c1ncn2[C@@H]1O[C@H](COP(=O)(O)OP(=O)(O)OP(=O)(O)O)[C@@H](O)[C@H]1O; experiment: as above; assay type: biochemical, Saccharomyces cerevisiae; conditions: M13 ssDNA 2.5 µM (nucleotides), 2 mM MgCl2, 100 mM KCl, pH 7.6, 30 °C, 40 nM protein; remark: listed apart in the source
Description: ATP hydrolysis, gamma-32P-ATP, thin layer chromatography on Srs2^898 (GFP-Srs2 1-898) | N70A, H100A, F219A, Y283A, R268A, and R389A mutant proteins were all moderately affected

[3] = substrate: Nc1ncnc2c1ncn2[C@@H]1O[C@H](COP(=O)(O)OP(=O)(O)OP(=O)(O)O)[C@@H](O)[C@H]1O; experiment: as above; assay type: biochemical, Saccharomyces cerevisiae; conditions: M13 ssDNA 2.5 µM (nucleotides), 2 mM MgCl2, 100 mM KCl, pH 7.6, 30 °C, 40 nM protein; remark: listed apart in the source
Description: ATP hydrolysis, gamma-32P-ATP, thin layer chromatography on Srs2^898 (GFP-Srs2 1-898) | The F68A, P671A, and Y775A mutants were all largely unperturbed with respect to ATP hydrolysis

Srs2 898 H650A, sequence (P12954 1-898 H650A): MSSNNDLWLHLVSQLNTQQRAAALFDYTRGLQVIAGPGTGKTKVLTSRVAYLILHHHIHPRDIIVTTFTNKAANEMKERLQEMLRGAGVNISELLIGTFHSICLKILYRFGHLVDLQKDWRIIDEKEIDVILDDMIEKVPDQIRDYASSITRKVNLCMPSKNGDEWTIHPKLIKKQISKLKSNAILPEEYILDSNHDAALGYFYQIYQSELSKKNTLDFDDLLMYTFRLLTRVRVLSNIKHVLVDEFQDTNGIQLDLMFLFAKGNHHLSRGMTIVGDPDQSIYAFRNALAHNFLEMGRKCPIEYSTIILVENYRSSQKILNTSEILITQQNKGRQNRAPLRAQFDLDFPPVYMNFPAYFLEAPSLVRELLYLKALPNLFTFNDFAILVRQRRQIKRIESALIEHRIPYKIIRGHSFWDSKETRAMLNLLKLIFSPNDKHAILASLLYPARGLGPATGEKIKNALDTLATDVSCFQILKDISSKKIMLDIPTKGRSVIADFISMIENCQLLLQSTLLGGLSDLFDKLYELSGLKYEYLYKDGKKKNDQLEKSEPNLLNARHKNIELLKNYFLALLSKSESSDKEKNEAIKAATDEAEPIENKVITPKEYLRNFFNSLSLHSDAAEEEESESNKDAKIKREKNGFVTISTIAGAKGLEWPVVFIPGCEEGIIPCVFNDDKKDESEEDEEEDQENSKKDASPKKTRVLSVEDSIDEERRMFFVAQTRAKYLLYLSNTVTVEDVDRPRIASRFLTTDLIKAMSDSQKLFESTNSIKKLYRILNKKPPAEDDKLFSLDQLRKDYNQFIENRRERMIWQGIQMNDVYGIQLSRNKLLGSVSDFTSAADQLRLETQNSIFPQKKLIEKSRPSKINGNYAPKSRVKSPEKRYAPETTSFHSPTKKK
Srs2 898 N70A, sequence (P12954 1-898 N70A): as the sequence (P12954 1-898 H650A) above, with N70A, A650H counted along it
Srs2 898 F68A, sequence (P12954 1-898 F68A): as the sequence (P12954 1-898 H650A) above, with F68A, A650H counted along it

ATTAAGCTCTAAGCCATGAATTCAAATGACCTCTTATCAA (ssDNA) [40-nt ssDNA]
Kd (GFP-Srs2 1-898 (WT)): 29 ± 3 nM | Kd (Srs2 898 H650A): 46 ± 3 nM | Kd (Srs2 898 F68A): 31 ± 2 nM | Kd (Srs2 898 F285A): 41 nM | Kd (Srs2 898 N70A): 30 ± 3 nM | binding result (Srs2 898 F219A): binds | binding result (Srs2 898 H100A): binds | binding result (Srs2 898 R286A): binds | binding result (Srs2 898 Y283A): binds

B1: Srs2^898 (GFP-Srs2 1-898) (Saccharomyces cerevisiae S288C) (protein)
chain: MSSNNDLWLHLVSQLNTQQRAAALFDYTRGLQVIAGPGTGKTKVLTSRVAYLILHHHIHPRDIIVTTFTNKAANEMKERLQEMLRGAGVNISELLIGTFHSICLKILYRFGHLVDLQKDWRIIDEKEIDVILDDMIEKVPDQIRDYASSITRKVNLCMPSKNGDEWTIHPKLIKKQISKLKSNAILPEEYILDSNHDAALGYFYQIYQSELSKKNTLDFDDLLMYTFRLLTRVRVLSNIKHVLVDEFQDTNGIQLDLMFLFAKGNHHLSRGMTIVGDPDQSIYAFRNALAHNFLEMGRKCPIEYSTIILVENYRSSQKILNTSEILITQQNKGRQNRAPLRAQFDLDFPPVYMNFPAYFLEAPSLVRELLYLKALPNLFTFNDFAILVRQRRQIKRIESALIEHRIPYKIIRGHSFWDSKETRAMLNLLKLIFSPNDKHAILASLLYPARGLGPATGEKIKNALDTLATDVSCFQILKDISSKKIMLDIPTKGRSVIADFISMIENCQLLLQSTLLGGLSDLFDKLYELSGLKYEYLYKDGKKKNDQLEKSEPNLLNARHKNIELLKNYFLALLSKSESSDKEKNEAIKAATDEAEPIENKVITPKEYLRNFFNSLSLHSDAAEEEESESNKDAKIKREKNGFVTISTIHGAKGLEWPVVFIPGCEEGIIPCVFNDDKKDESEEDEEEDQENSKKDASPKKTRVLSVEDSIDEERRMFFVAQTRAKYLLYLSNTVTVEDVDRPRIASRFLTTDLIKAMSDSQKLFESTNSIKKLYRILNKKPPAEDDKLFSLDQLRKDYNQFIENRRERMIWQGIQMNDVYGIQLSRNKLLGSVSDFTSAADQLRLETQNSIFPQKKLIEKSRPSKINGNYAPKSRVKSPEKRYAPETTSFHSPTKKK
notes: residues 1-898 of 1174 (C-terminal 276 residues omitted), N-terminal GFP tag kept, pET15b, Talon purified; expressed in E. coli Rosetta2 (DE3)
Km [1]: 1580 ± 710 µM | kcat [1]: 51 ± 8 s⁻¹

B2: Srs2^898 (GFP-Srs2 1-898) (Saccharomyces cerevisiae S288C; R389A) (protein)
chain: B1 chain with R389A
notes: as for B1
Km [2]: 1600 ± 720 µM | kcat [2]: 44 ± 7 sec–1

B3: Srs2^898 (GFP-Srs2 1-898) (Saccharomyces cerevisiae S288C; F285A) (protein)
chain: B1 chain with F285A
notes: as for B1
Km [1]: 2750 ± 790 µM | kcat [1]: 25 ± 4 sec–1

B4: Srs2^898 (GFP-Srs2 1-898) (Saccharomyces cerevisiae S288C; F68A) (protein)
chain: B1 chain with F68A
notes: as for B1
Km [3]: 1520 ± 710 µM | kcat [3]: 49 ± 8 sec–1

B5: Srs2^898 (GFP-Srs2 1-898) (Saccharomyces cerevisiae S288C; Y283A) (protein)
chain: B1 chain with Y283A
notes: as for B1
Km [2]: 1520 ± 630 µM | kcat [2]: 44 ± 6 sec–1

B6: Srs2^898 (GFP-Srs2 1-898) (Saccharomyces cerevisiae S288C; H100A) (protein)
chain: B1 chain with H100A
notes: as for B1
Km [2]: 1330 ± 710 µM | kcat [2]: 45 ± 8 sec–1

B7: Srs2^898 (GFP-Srs2 1-898) (Saccharomyces cerevisiae S288C; F219A) (protein)
chain: B1 chain with F219A
notes: as for B1
Km [2]: 1510 ± 660 µM | kcat [2]: 42 ± 6 sec–1

B8: Srs2^898 (GFP-Srs2 1-898) (Saccharomyces cerevisiae S288C; N70A) (protein)
chain: B1 chain with N70A
notes: as for B1
Km [2]: 1320 ± 670 µM | kcat [2]: 47 ± 7 sec–1

B9: Srs2^898 (GFP-Srs2 1-898) (Saccharomyces cerevisiae S288C; H650A) (protein)
chain: B1 chain with H650A
notes: as for B1
Km [1]: 2910 ± 780 µM | kcat [1]: 15 ± 2 sec–1

B10: Srs2^898 (GFP-Srs2 1-898) (Saccharomyces cerevisiae S288C; Y775A) (protein)
chain: B1 chain with Y775A
notes: as for B1
Km [3]: 1610 ± 740 µM | kcat [3]: 51 ± 8 sec–1

B11: Srs2^898 (GFP-Srs2 1-898) (Saccharomyces cerevisiae S288C; P671A) (protein)
chain: B1 chain with P671A
notes: as for B1
Km [3]: 1590 ± 720 µM | kcat [3]: 50 ± 7 sec–1
